Series [1] concerns the molecule itself. Briefly: AUC.
Series [2] deals with the molecule itself. Briefly: AUC. This is another data set of the same source.

B1: poly-epitope P181 (P90-DEG-P77-DEG-P27) (peptide)
chain: TKKLNKELSEGNKELEKLEKNIKELEETNNTLENDIKVEKLKKYNNEISSLKKELDILNEKMGKCTKKRNVEEELHSLRKNYNIINEEIEEIT
modifications: derivatized diethylene glycol (DEG) linker inserted between P90 and P77 and between P77 and P27
As for B1, in “AUC [1]”, the “stoichiometry N” value was 2. In “AUC [2]”, this protein displayed a Kd of 115 µM.

For orientation: stoichiometry N means a count of units in the complex or per binding partner. A word on the Kd: it is the concentration at which binding is half-saturated. A high value points to lower affinity.

(Values after PMC4165486 (Vaccine, 2011).)
